Experimental data: the nanobody polyreactivity screen of Harvey et al. (2022)

test: yeast display, Sf9 membrane polyspecificity reagent, FACS + sequencing; frameworks hold sequencing errors
Outline: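 Polyreactivity labels are assigned by the sorting gate from which each nanobody was recovered. The gates were low and high (top ~1%), set on anti-HA fluorescence for expression and streptavidin fluorescence for reagent binding. Before sorting, galactose-induced (36–48 hours) yeast display cells were stained for 1 hour at 4 °C with 10% biotinylated, detergent-solubilized Sf9 membrane reagent.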

| Sequence | polyreactivity (PSR sort gate) |
| --- | --- |
| HVQQQESGGGLVQAGGSLRLSCAASGYISVVIGMCWYRQSPGKERELVASIAYGAITYYTDRVKGRFTISRDYAKNTEYLQMNSLKAEDTAVYYCAADQPPLAYHWYWGQGTQATVSS | high polyreactivity |
| HVQRVESGGGLVQAGASLRLSCAASGGIFSPNAMGWYRQAPGKERELVAAISSNGGSTNYADSVKGRFTISRDNAKNTVYLQMNSLKPEDTAVYYCAGLQKRRSYWRPFYWGQGTQVTVSS | low polyreactivity |
| IIQAGGSLRLSCAASGGTFFVYMGWYRQAPGKERELVADISGFGGGTYYADSVKGRFTISRDNAKNTVYLQMNSLKPEYTAVYYCATVVPTGIIRMYWGQGTQVTVSS | low polyreactivity |
| IIQEGGSLRLSCAASGRTFSGYAMGWYRQAPGKERELIADITSGGSTYYADSVKGRFTISRDNAKNTVYLQMNSLKPEDTAVYYCAAERQIRSFWSSRTYEFGYWGQGTQVTVSS | low polyreactivity |
| KFQLVESGGGLVQAVGSLRLSCDASGRTFYYYDMGWYRQAPGKERELVAAITWDGGRTYYADSVMGRFTISRDNAKNTVYLQMNSLKPEDTAVYYCNADDFFEILGECTLMDYWGQGTQVTVSS | low polyreactivity |
| KVHLVDSGGRLVQAGGSLRLSCSASGSIFYVYAMGWYRQAPGTERELVATISSSAGSTYYAYSVKGRFTISRDNAKNTVNLQMYSLNPVDTAVYYCYADSFLSWVYRYVYYVSGLWGQGTQVTVSS | low polyreactivity |
| KVQLVESGAGLVQAGGSLRLSCAASGITFVRYVMGWYRQAPGKERELVAAISNSGGRTYYADSVKGRFTISRDNAKNTVYLQMNSLKPEDTAVYYCARRAGSYPYGYTGYDYWGQGTLVTVSS | high polyreactivity |
| KVQLVESGGGLVQAGGSLRISCAASGSIFGYYTMGWYRQAPGKERELVARITRGGSTYYADSVKGRFTISRDNAKNTVYLHMNSLKPEDTAVYFCNADSRYRYEYWGLGTQVTVSS | low polyreactivity |
| KVQLVESGGGLVQAGGSLRITCAASGSNQASNAMGWYRQAPGKERELVAAIRVSGASTYYADSVKGRFTISRDNAKNTVYLQMKSLKPEYNAVYYCAADYQFGVIYYYWGQGTQVTLSS | low polyreactivity |
| KVQLVESGGGLVQAGGSLRLSCAASGLTFSYYAMGWYRQAPGKERELVAAITRSGTRTYYADSVKGRFTISRDNAKNTVYLQMNSLKPEDTAVYYCARYLRGDFQQGEHWGQGTQVTVSS | high polyreactivity |
| KVQLVESGGGLVQAGGSLRLSCAASGSIFGDNAMGWYRQAPGKERELVAAINYNGGRTYYADSVKGRFTISRDNAKNTVYLQMNSLKPEDTAVYYCAKDNYQAPVQQYPFDYWGQGSQVTVSS | low polyreactivity |
| KVQLVESGGGLVQAGGSLRLSCAASGSIFYYYAMGWYRQAPGKERELVAAISERGAYVLRRPVKGRFTISRDNAKNTVYLQMNSLKPEDTAVYYCAVGFNFQGWRYDYWGQGTQVNVSS | high polyreactivity |
| KVQLVESGGGLVQAGGSLRLSCAASGSTFPPNAMGWNRQAPGKERELVAVISYSDGSTYYADSVKGRFTISRDNAKNTVYLQMNSLKPEDTAVYYCAAYSGYGGVSMYYWGQGTQVTVSS | low polyreactivity |
| KYYADSVKGRFTISRDNAKNTVYLQMNSLNPEDTAVYYCNAGYYISFNPYDYWGQGTQVTVSW | low polyreactivity |
| LEQLVESGGGLVHAGGSLRLSCAASRSNFPQYTLGWNRQAPVKERELVAAISNYGSSTYYADSEKGRFTISRDYAKNSVSLQMNSLKPEDTAVYECNADDYGYYPGVNYWGQGTQVTVSS | low polyreactivity |
| LVQLQESGGGLVLAGGGLRLSCAASGNIFTYVIMGWYRQPPGKERELVAAITYGTITNYADSVKGPFTISRDNAKNTVYLQMNCLKPEDTAVYHCAVQSPRIEPRLYYWGQGTQVTVSS | high polyreactivity |
| LVQLQESRGGLVLAGGGLRLSCPESVNIFTYVIMGWYRQQPGKERELVAAITYGTFTNYADSVKGPFTISRDNAKNTVYLHMNCLKPEDTAVYHCAVQSPLIEPRLYYWGQGTQVTVSS | high polyreactivity |
| LVQLVESGGGLVHAGGSLRLSCAASGSTFNIYAMGWYRQAPGKERELVAAISSSGGRTYYADSVKGRFTISRDNAKNTVYFQMIRLKPEDTAVYYCAARSRRVSLIRDSYGYWGQGTQVNVSS | high polyreactivity |
